Data as given in PMC12221297, “Negative regulation of miRNA sorting into EVs is mediated by the capacity of RBP PCBP2 to impair the SYNCRIP-dependent miRNA loading”.

Target: PCBP2 recombinant (Origene TP522190) (Mus musculus, UniProt Q61990 1-362)
Assay: pull-down; EMSA: REMSA binding buffer (LightShift kit), 4 ug extract, 0.5 pmol biotin-RNA, 30 min room temperature, native 6% PAGE 0.5x TBE; pull-down: streptavidin beads
Settings: protein: commercial; label: 5' biotin

PCBP2 recombinant (Origene TP522190), sequence (Q61990 whole entry): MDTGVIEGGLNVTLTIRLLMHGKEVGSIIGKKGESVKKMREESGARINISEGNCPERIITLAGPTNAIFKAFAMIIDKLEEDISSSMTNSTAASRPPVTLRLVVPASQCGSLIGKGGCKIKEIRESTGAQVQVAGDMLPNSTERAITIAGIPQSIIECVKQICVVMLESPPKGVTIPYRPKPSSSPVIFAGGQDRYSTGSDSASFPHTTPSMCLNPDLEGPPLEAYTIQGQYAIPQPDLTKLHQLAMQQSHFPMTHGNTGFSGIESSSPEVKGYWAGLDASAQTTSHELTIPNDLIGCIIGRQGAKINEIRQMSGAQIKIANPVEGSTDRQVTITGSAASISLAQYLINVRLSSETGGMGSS

## CUCCUACCUGUUAGCAUUAAC (ssRNA) [miR-155-3p WT (Table 1: miR-155b-3p WT)]
  binding result: binds
